These results are taken from article PMC4243253 (Biochemical Journal, 2014).

The data set deals with the molecule itself. Kind of data set: SEC.

B1: Bacillus anthracis kynurenine formamidase KynB (enzyme)
chain: MKTSKWIDISQPLNNDIATWPGDTPFSYEVLWSKEESGSVNVGKLTMSIHTGTHIDAPFHFDNDGKKVLDLDIQVYVGPTRIIDVSNLESIGKKELEKFHLEGVERLLLRTSSHGKANEFPDIIPHLRADIAPFLSEKGIRLIGVDVPSVDPLDDKELAAHHQLFKHSIHILENVVLDHVADGDYELIALPLALSDADGSPVRAVIRPI
notes: also called BaKynB; KFase
In the case of B1, the “stoichiometry N” value amounted to 2.
